Source: patent US20260184780A1 (MONASH UNIVERSITY, published 2026)

T1: hPAR4 (naked) peptide (human)
T1 construct: also called native PAR4 peptide; hPAR4 peptide
T1 peptide: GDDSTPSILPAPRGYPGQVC

T2: hPAR1 (Biotin) peptide (human, not fully specified; biotin on the C-terminal lysine (SKB))
T2 construct: also called PAR1 peptide; PAR1 screening peptide
T2 peptide: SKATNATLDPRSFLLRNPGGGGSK

T3: hPAR3 (Biotin) peptide (human, biotin on the C-terminal lysine (SKB))
T3 construct: also called PAR3 peptide; PAR3 screening peptide
T3 peptide: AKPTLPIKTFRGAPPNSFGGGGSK

T4: mPAR4 (naked) peptide (mouse)
T4 construct: T0021 says only 'mouse PAR4'; also called mouse PAR4
T4 peptide: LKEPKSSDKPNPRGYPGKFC

T5: hPAR4 (Biotin) peptide (human, biotin on the C-terminal lysine (SKB))
T5 construct: also called hPAR4-biotinylated peptide; biotin-coupled human PAR4 peptide
T5 peptide: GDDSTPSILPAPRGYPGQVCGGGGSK

T6: hPAR2 (Biotin) peptide (human, not fully specified; biotin on the C-terminal lysine (SKB))
T6 construct: also called PAR2 peptide; PAR2 screening peptide
T6 peptide: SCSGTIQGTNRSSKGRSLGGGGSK

T7: human PAR4 on isolated human platelets (human, UniProt Q96RI0 18-385)
T7 construct: Endogenous receptor of donor platelets; donors carry Ala120 and/or Thr120; also called PAR4 on human platelets
T7 sequence: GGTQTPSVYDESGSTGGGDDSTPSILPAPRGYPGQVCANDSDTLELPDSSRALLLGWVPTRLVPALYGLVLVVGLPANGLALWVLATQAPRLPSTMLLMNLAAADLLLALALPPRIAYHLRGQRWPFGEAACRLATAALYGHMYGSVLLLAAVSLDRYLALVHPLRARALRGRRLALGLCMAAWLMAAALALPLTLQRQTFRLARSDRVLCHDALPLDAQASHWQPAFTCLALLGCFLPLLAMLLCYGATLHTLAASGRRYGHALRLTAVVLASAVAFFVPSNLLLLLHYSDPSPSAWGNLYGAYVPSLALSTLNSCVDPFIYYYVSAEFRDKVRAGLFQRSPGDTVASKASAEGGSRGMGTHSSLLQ

T8: hPAR4 1-9 peptide (human)
T8 construct: Range counted on the hPAR4 immunising peptide; also called peptide 1-9
T8 peptide: GDDSTPSIL

T9: hPAR4 11-20 peptide (human)
T9 construct: Range counted on the hPAR4 immunising peptide; the C-terminal cysteine was removed, so nine residues are given; also called peptide 11-20
T9 peptide: APRGYPGQV


Columns and labels:
[1] = target: T1, hPAR4 (naked) peptide; assay: ELISA, hybridoma supernatant
[2] = target: T2, hPAR1 (Biotin) peptide; assay: ELISA, hybridoma supernatant
[3] = target: T3, hPAR3 (Biotin) peptide; assay: ELISA, hybridoma supernatant
[4] = target: T4, mPAR4 (naked) peptide; assay: ELISA, hybridoma supernatant
[5] = target: T1, hPAR4 (naked) peptide; assay: ELISA, purified mAb on hPAR4 peptide
[6] = target: T5, hPAR4 (Biotin) peptide; assay: SPR Biacore T200, biotin peptide on SA chip, whole mAb as analyte
Protocol: (§1) The kinetics of the binding interaction between the mAbs and hPAR4 was measured using Surface Plasmon Resonance (SPR; Biacore) by two different methods: 1. Anti-mouse Fc mAb capture method and 2. Streptavidin (SA) chip to capture biotinylated peptide. The ka(on) rate and kd(off) rates and KD were measured and fitted to a Langmuir model using the Biacore evaluation software.

[7] = target: T1, hPAR4 (naked) peptide; assay: SPR Biacore T200, mAb captured by anti-mouse Fc, hPAR4 peptide as analyte
Protocol: A series S CM5 sensor chip was activated with standard EDC/NHS amine coupling chemistry using the manufacturers recommended protocol with Goat anti-mouse IgG Fc. Anti-hPAR4 mAbs were captured at 1-2 ug/ml for 2 minutes at 10 ul/minute on flow cell 2 (FC2) and flow cell 1 (FC1) was used as a reference channel. […] Blank injections of buffer alone were also performed. All injections were performed in duplicate and in a random order.
as §1

[8] = target: T2, hPAR1 (Biotin) peptide; assay: ELISA, biotinylated peptide on streptavidin plate, absorbance 405 nm
Protocol: (§2) Biotinylated peptides (hPAR1-4) were diluted in Wash buffer and allowed to bind to the blocked Streptavidin coated wells at 10 ug/ml (100 ul per well) for 1 hour at room temperature with gentle mixing. Wells were washed 3 times as above and purified anti-hPAR4 mAbs prepared at 10 ug/ml in Wash buffer were allowed to bind (100 ul/well) for 1 hour at room temperature with gentle mixing. The plate was washed 3 times as above and anti-mouse Fc conjugated to Alkaline phosphatase (AP) at 0.3 ug/ml (100 ul) was added to the wells for 1 hour as above. Wells were washed 3 times as above and developed with Alkaline Phosphatase substrate as described for the screening supernatant ELISA.
(§3) To further characterise the purified anti-hPAR4 mAb's the specificity of the mAbs to hPAR1, hPAR2, hPAR3 and hPAR4 biotinylated peptides was performed.

[9] = target: T6, hPAR2 (Biotin) peptide; assay: as above
Protocol: as §2, §3

[10] = target: T3, hPAR3 (Biotin) peptide; assay: as above
Protocol: as §2, §3

[11] = target: T7, human PAR4 on isolated human platelets; assay: flow cytometry on isolated human platelets
[12] = target: T8, hPAR4 1-9 peptide; assay: ELISA, peptide coated on the plate, purified mAb, background subtracted
Protocol: (§4) Briefly the peptides were coated onto a Nunc maxisorp ELISA plate at 10 ug/ml overnight in coating buffer (0.1 M sodium carbonate pH8.0). Purified mAbs diluted in PBS were used in place of supernatant.

[13] = target: T9, hPAR4 11-20 peptide; assay: as above
Protocol: as §4

[14] = target: T7, human PAR4 on isolated human platelets; assay: cell-based or functional assay

Binder | fold binding native vs KLH-linked PAR4 peptide [1] | binding to PAR1 ratio [2] | binding to PAR3 ratio [3] | binding to mouse PAR4 ratio [4] | binding result [8] | binding result [9] | binding result [10] | GMFI at 10 ug/ml over isotype control [11] | platelet aggregation, % of control [14] | also measured
5I.RG1.D6.C1b (antibody, IgG3, V domains shown, also called 51.RG1; MoB5I G1) VH: QVQLQQWGAGLLKPSETLSLACAISSGSFSTYFWRWIRQPPGKGLEWIGEIIHTGSTTYNPSLKSRVTISVDTSKNQLSLKLSSVTAADTAVYYCAFEYSSSGGYYYGMDVWGQGTTVTVSS VL: DIQMTQSPSSLSASVGDRVTITCRASQSISSYLNWYQQIPGKAPNLLIYAASSLRSGVPSRFSGSGSGTDFTLTISSLQPEDFATYYCQQTYSTPLTFGGGTKVEIK | 9.2 fold | 1 ratio | 1 ratio | 9.4 ratio | no binding (tested: 10 ug/ml) | no binding (tested: 10 ug/ml) | no binding (tested: 10 ug/ml) | – | – | ELISA Pos:Neg ratio [5]: 6.3 ratio; Kd [6]: 0.36 nM; koff [6]: 0.000667 s⁻¹; kon [6]: 1.85e+06 M⁻¹ s⁻¹; Kd [7]: 105 nM; koff [7]: 0.00146 s⁻¹; kon [7]: 14000 M⁻¹ s⁻¹
5G.RA1.E10.G3 (antibody, IgG2a, V domains shown, also called MoB5G A1) VH: QVQLVESGGGVVQPGRSLRLSCAASGFTFSSYGMHWVRQAPGKGLEWVAVIWYDGSNKYYADSVKGRFTISRDNSKNTLYLQMNSLRAEDTAVYYCARETALVRGVPFDYWGQGTLVTVSS VL: not shown | – | – | – | – | no binding (tested: 10 ug/ml) | no binding (tested: 10 ug/ml) | no binding (tested: 10 ug/ml) | 25 | – | binding result [12]: no binding; binding result [13]: no binding
5G RG1.D3.C2b (antibody, IgG1, V domains shown, also called MoB5G G1) VH: QVQLVESGGGVVQPGRSLRLSCVASGFTLSSYGMHWVRQAPGKGLEWVAVIWYDGSSKYYTDSVKGRFDISRDNSKNTLYLQMNILRAEDTAVYYCARETILIGGVPFDYWGQGTLVTVSS VL: EIVLTQSPGTLSLSPGERATLSCGASQSIRSNYLAWYQQKPGQAPRLLIYGASSRATGTPDRFSGSGSGTDFTLTITRLEPEDFALYYCQQYGRSYTFGQGTKLEIK | 11.1 fold | 1.1 ratio | 0.8 ratio | 8.6 ratio | – | – | – | – | < 25 % of control | –
5G RD6.D1.E11b (antibody, IgG2a, V domains shown) VH: QVQLVESGGGVVQPGRSLRLSCAASGFAFSSYGMHWVRQAPGKGLEWVAVIWYDGSNRYYADSVKGRFTISRDTSKNTLFLQMNSLRAEDTAVYYCARETAMVRGVPFDYWGQGTLVTVSS VL: not shown | – | – | – | – | – | – | – | – | > 80 % of control | –
5H.RA3.D3b.A2b (antibody, IgG2a, V domains shown, also called MoB5H A3) VH: QVQLVESGGGVVQPGRSLRVSCAASGFTFSSYGMLWVRQAPGKGLEWVAVIWYDGTKKYYADSLKGRFTISRDNSKYTLYLQMNSLRADDTALYFCARKGARGITGLDYWGQGTLVTVSS VL: not shown | – | – | – | – | no binding (tested: 10 ug/ml) | no binding (tested: 10 ug/ml) | no binding (tested: 10 ug/ml) | 100 | < 25 % of control | –
5F RE6.D3.E7 (antibody, IgG2a, V domains shown, also called MoB5F E6) VH: QVQLAESGGGVVQPGRSLRVSCAASGFTFSSYGMHWVRQAPGKGLEWVAVIWYDGTKKYYADSLKGRFTISRDNSKYTLYLQMNSLRADDTALYFCARKGARGITGLDYWGQGTLVTVSS VL: DIQMTQSPSSLSASAGDRITITCRASQSISNYLNWYQQKPGKAPKLLIYAASSLQSGVPSRFSGSGSGTDFTLTISSLQPEDFASYYCRQNYNTPLTFGGGTKVEIK | 12 fold | 1.1 ratio | 0.8 ratio | 12.2 ratio | – | – | – | – | – | –
5H.RD2.A7b (antibody, IgG1, V domains shown, also called MoB5H-RD2.A7b; MoB5H D2) VH: EVQLVESGGDLVKPGGSLRLSCSASGFTFFNTWMNWVRQAPGKGLEWVGRVKSKNDGGTKDYAAPVTGRFTISRDDSKDTLYLQMNSLKTEDTAVYYCTTDPHYDFWSAYWGQGTLVTVSS VL: not shown | 6 fold | 1 ratio | 0.9 ratio | 6.2 ratio | – | – | – | – | > 80 % of control | –
5H RG4.H7b.F5b (antibody, IgG2a, V domains shown) VH: QVQLVQSGAEVKKPGASVKVSCKASGYTFTGHYFHWVRQAPGQGLEWMGWINPNSGGTNFAQRFQGRVTMTRVTSISTAYMELSGLRSDDTAVYYCARGYYDTSGYYYAFEFWGQGTLVIVSS VL: not shown | – | – | – | – | – | – | – | – | > 80 % of control | –
5D.RH4.G7.E6.C7b.G7 (antibody, IgG2a, V domains shown, Human variable regions on mouse constant regions, IgG2a/K) VH: QIQLVESGGGVVQPGRSLRLSCAASGFTFSSDGMHWVRQAPGKGLEWVAVIWFDGRNKYYLDSVKGRFTISRDNSKNTLYLQMNSLRAEDTAVYYCARESSISTRPPFDYWGQGTLVTVSS VL: not shown | – | – | – | – | no binding (tested: 10 ug/ml) | no binding (tested: 10 ug/ml) | no binding (tested: 10 ug/ml) | 33 | – | binding result [12]: no binding; binding result [13]: no binding
5H.RF2.A5b.D3.C2 (antibody, IgG2a, V domains shown, also called MoB5H F2) VH: QVQLQQWGAGLLKPSETLALTCAVYGGSLSDYYWSWIRQPPGKGLEWIGEINHSGTTNYNPSLKSRVTISVDTSKKQFSLKLSSVTAADTAVYYCAIEYSNSRGYYYGMDVWGQGTTVTVSS VL: DIQMTQSPSSLSASAGDRITITCRASQTISNYLNWYQQKPGKAPKLLIYAASSLQSGVPSRFSGSGSGTDFTLTISSLQPEDFASYYCRQNYNTPLTFGGGTKVEIK | 11.9 fold | 1 ratio | 0.9 ratio | 10.4 ratio | no binding (tested: 10 ug/ml) | no binding (tested: 10 ug/ml) | no binding (tested: 10 ug/ml) | – | > 80 % of control | ELISA Pos:Neg ratio [5]: 8.5 ratio; Kd [6]: 0.61 nM; koff [6]: 0.00111 s⁻¹; kon [6]: 1.84e+06 M⁻¹ s⁻¹; Kd [7]: 38 nM; koff [7]: 0.00227 s⁻¹; kon [7]: 58400 M⁻¹ s⁻¹
